Assays:
[1] = target: recombinantly expressed GFP Nb; experiment: BLI; Nbs immobilised by their C-terminal His-tag on Ni-NTA biosensor tips; untagged GFP as analyte at 1 nM to 100 nM
[2] = target: synthetic GFP Nb_(1–123)‐linker‐PA (5), folded; experiment: as above

Substance: untagged GFP (from UniProt P42212 1-238) (natural protein)
- Kd [1]: 1.12 nM
- Kd [2]: 1.11 nM
